Numbered stars: 1 amine (or outer) side, 2 acyl side, 3 side chain; on linkers, the order of the positions; unused ones are H or OH. Bridge positions count the residues as written; N and C are the ends. Side chains are listed from the residue outwards. Ends that are not written are not given here. * marks the point of attachment. C20 diacid = O=C(O)CCCCCCCCCCCCCCCCCCC(=O)*; γGlu = O=C(O)[C@H](CCC(=O)[*:2])N[*:1]
T1: human calcitonin receptor (human, UniProt P30988 25-474)
T1 sequence (looked up): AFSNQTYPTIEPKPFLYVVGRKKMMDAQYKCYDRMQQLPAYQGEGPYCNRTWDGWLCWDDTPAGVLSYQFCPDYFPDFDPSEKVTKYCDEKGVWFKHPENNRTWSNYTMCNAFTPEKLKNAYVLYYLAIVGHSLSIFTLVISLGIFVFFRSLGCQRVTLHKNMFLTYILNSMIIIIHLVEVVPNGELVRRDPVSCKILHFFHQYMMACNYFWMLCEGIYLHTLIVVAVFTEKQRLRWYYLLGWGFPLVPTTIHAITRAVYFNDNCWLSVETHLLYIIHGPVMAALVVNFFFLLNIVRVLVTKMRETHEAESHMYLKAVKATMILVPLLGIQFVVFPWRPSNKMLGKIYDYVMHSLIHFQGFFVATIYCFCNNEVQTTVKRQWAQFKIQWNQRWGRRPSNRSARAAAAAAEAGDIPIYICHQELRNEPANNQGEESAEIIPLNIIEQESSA

T2: human amylin receptor (amylin 3(a) receptor: human calcitonin receptor with RAMP-3) (human, UniProt P30988 25-474; O60896 24-148, limits assumed)
T2 construct: whole, on cells; Whole cells in the luciferase assay (Assay II a); also called hAmylin-R; hAmylinR
T2 sequence (looked up) 1: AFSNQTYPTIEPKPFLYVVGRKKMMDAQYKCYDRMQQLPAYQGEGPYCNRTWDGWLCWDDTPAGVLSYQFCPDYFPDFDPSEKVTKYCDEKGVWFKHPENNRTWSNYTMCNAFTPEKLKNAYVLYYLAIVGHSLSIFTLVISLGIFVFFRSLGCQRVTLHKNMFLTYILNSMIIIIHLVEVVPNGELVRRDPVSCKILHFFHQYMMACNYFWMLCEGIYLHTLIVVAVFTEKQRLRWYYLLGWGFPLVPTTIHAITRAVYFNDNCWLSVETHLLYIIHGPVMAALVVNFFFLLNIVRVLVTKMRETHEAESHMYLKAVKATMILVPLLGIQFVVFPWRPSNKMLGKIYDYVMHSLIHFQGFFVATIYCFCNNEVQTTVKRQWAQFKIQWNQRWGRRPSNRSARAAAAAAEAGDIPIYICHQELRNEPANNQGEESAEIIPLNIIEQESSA
T2 sequence (looked up) 2: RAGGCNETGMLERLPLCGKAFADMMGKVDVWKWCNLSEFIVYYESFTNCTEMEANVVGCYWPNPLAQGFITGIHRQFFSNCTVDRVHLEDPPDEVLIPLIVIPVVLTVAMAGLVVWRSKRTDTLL


Key:
[1] = biological target: T1, human calcitonin receptor; assay: cell-based or functional assay
[2] = biological target: T2, human amylin receptor (amylin 3(a) …); assay: SPA competition binding on membranes of BHK cells with human calcitonin receptor + RAMP-3; displacement of 125I-rat amylin (Assay V)
In short: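 Cell membranes were prepared by homogenisation in Na-HEPES/EDTA buffer, pH 7.4, and stored at −80° C. They were then coupled to SPA beads at 35 ng/μL final and exposed to compounds in assay buffer containing CaCl2, MgCl₂, OA and Tween20. After 120 min at 25° C, plates were counted and IC₅₀ derived.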

| Ratio hCT/hAmylin funct. [1] [ratio] | hCTR funct. EC50 (pM) [1] [pM] | IC50 [2] [nM] | Binder |
| --- | --- | --- | --- |
| 17 | 6380 | 0.163 | K([γGlu-C20 diacid])CNTATCATQRLAEFLRHSSPNFGAIPSSTNVGPRTY-NH2 (disulfide 2-7; N-terminus assumed; SMILES CC[C@H](C)[C@H](NC(=O)[C@H](C)NC(=O)CNC(=O)[C@H](Cc1ccccc1)NC(=O)[C@H](CC(N)=O)NC(=O)[C@@H]1CCCN1C(=O)[C@H](CO)NC(=O)[C@H](CO)NC(=O)[C@H](Cc1c[nH]cn1)NC(=O)[C@H](CCCNC(=N)N)NC(=O)[C@H](CC(C)C)NC(=O)[C@H](Cc1ccccc1)NC(=O)[C@H](CCC(=O)O)NC(=O)[C@H](C)NC(=O)[C@H](CC(C)C)NC(=O)[C@H](CCCNC(=N)N)NC(=O)[C@H](CCC(N)=O)NC(=O)[C@@H](NC(=O)[C@H](C)NC(=O)[C@@H]1CSSC[C@H](NC(=O)[C@@H](N)CCCCNC(=O)CC[C@H](NC(=O)CCCCCCCCCCCCCCCCCCC(=O)O)C(=O)O)C(=O)N[C@@H](CC(N)=O)C(=O)N[C@@H]([C@@H](C)O)C(=O)N[C@@H](C)C(=O)N[C@@H]([C@@H](C)O)C(=O)N1)[C@@H](C)O)C(=O)N1CCC[C@H]1C(=O)N[C@@H](CO)C(=O)N[C@@H](CO)C(=O)N[C@H](C(=O)N[C@@H](CC(N)=O)C(=O)N[C@H](C(=O)NCC(=O)N1CCC[C@H]1C(=O)N[C@@H](CCCNC(=N)N)C(=O)N[C@H](C(=O)N[C@@H](Cc1ccc(O)cc1)C(N)=O)[C@@H](C)O)C(C)C)[C@@H](C)O) |
| 26 | 8660 | 0.88 | K([γGlu-γGlu-C20 diacid])CNTATCATQRLANFLRHSSPNFGAIPSSTPVGPRTY-NH2 (disulfide 2-7; N-terminus assumed; SMILES CC[C@H](C)[C@H](NC(=O)[C@H](C)NC(=O)CNC(=O)[C@H](Cc1ccccc1)NC(=O)[C@H](CC(N)=O)NC(=O)[C@@H]1CCCN1C(=O)[C@H](CO)NC(=O)[C@H](CO)NC(=O)[C@H](Cc1c[nH]cn1)NC(=O)[C@H](CCCNC(=N)N)NC(=O)[C@H](CC(C)C)NC(=O)[C@H](Cc1ccccc1)NC(=O)[C@H](CC(N)=O)NC(=O)[C@H](C)NC(=O)[C@H](CC(C)C)NC(=O)[C@H](CCCNC(=N)N)NC(=O)[C@H](CCC(N)=O)NC(=O)[C@@H](NC(=O)[C@H](C)NC(=O)[C@@H]1CSSC[C@H](NC(=O)[C@@H](N)CCCCNC(=O)CC[C@H](NC(=O)CC[C@H](NC(=O)CCCCCCCCCCCCCCCCCCC(=O)O)C(=O)O)C(=O)O)C(=O)N[C@@H](CC(N)=O)C(=O)N[C@@H]([C@@H](C)O)C(=O)N[C@@H](C)C(=O)N[C@@H]([C@@H](C)O)C(=O)N1)[C@@H](C)O)C(=O)N1CCC[C@H]1C(=O)N[C@@H](CO)C(=O)N[C@@H](CO)C(=O)N[C@H](C(=O)N1CCC[C@H]1C(=O)N[C@H](C(=O)NCC(=O)N1CCC[C@H]1C(=O)N[C@@H](CCCNC(=N)N)C(=O)N[C@H](C(=O)N[C@@H](Cc1ccc(O)cc1)C(N)=O)[C@@H](C)O)C(C)C)[C@@H](C)O) |
| 44.9 | 7280 | 0.453 | K([γGlu-γGlu-C20 diacid])CNTATCATQRLADFLRHSSPNFGAIPSSTNVGPRTY-NH2 (disulfide 2-7; N-terminus assumed; SMILES CC[C@H](C)[C@H](NC(=O)[C@H](C)NC(=O)CNC(=O)[C@H](Cc1ccccc1)NC(=O)[C@H](CC(N)=O)NC(=O)[C@@H]1CCCN1C(=O)[C@H](CO)NC(=O)[C@H](CO)NC(=O)[C@H](Cc1c[nH]cn1)NC(=O)[C@H](CCCNC(=N)N)NC(=O)[C@H](CC(C)C)NC(=O)[C@H](Cc1ccccc1)NC(=O)[C@H](CC(=O)O)NC(=O)[C@H](C)NC(=O)[C@H](CC(C)C)NC(=O)[C@H](CCCNC(=N)N)NC(=O)[C@H](CCC(N)=O)NC(=O)[C@@H](NC(=O)[C@H](C)NC(=O)[C@@H]1CSSC[C@H](NC(=O)[C@@H](N)CCCCNC(=O)CC[C@H](NC(=O)CC[C@H](NC(=O)CCCCCCCCCCCCCCCCCCC(=O)O)C(=O)O)C(=O)O)C(=O)N[C@@H](CC(N)=O)C(=O)N[C@@H]([C@@H](C)O)C(=O)N[C@@H](C)C(=O)N[C@@H]([C@@H](C)O)C(=O)N1)[C@@H](C)O)C(=O)N1CCC[C@H]1C(=O)N[C@@H](CO)C(=O)N[C@@H](CO)C(=O)N[C@H](C(=O)N[C@@H](CC(N)=O)C(=O)N[C@H](C(=O)NCC(=O)N1CCC[C@H]1C(=O)N[C@@H](CCCNC(=N)N)C(=O)N[C@H](C(=O)N[C@@H](Cc1ccc(O)cc1)C(N)=O)[C@@H](C)O)C(C)C)[C@@H](C)O, also called compound 130) |

Reference: US20140087995A1 (published 2014)
